Earlier results in paper PMC6995517.

Target: transferrin receptor (TfR) (Homo sapiens) (UniProt P02786)
Sequence (P02786 89-760): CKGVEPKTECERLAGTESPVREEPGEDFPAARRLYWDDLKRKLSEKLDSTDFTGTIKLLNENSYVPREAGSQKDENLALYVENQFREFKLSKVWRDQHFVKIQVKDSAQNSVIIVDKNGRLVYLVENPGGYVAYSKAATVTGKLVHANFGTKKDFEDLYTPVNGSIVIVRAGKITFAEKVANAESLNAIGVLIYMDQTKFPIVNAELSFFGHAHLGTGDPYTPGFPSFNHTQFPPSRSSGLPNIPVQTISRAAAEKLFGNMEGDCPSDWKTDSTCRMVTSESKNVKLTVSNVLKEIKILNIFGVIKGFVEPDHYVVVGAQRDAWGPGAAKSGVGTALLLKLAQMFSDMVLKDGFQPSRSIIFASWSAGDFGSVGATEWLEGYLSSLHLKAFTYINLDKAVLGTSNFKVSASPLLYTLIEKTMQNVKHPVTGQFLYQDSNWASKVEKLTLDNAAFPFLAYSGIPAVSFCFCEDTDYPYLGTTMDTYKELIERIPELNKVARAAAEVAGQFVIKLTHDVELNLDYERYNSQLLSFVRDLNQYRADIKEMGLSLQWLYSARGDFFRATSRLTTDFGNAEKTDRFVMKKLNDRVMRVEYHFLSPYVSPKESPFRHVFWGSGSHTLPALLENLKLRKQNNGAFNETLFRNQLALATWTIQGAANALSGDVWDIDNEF

Kd: 10 nM
Substance: T7 peptide
